Experiment [1] has as its target CwlDΔ25-His6 (soluble domain of C. difficile CwlD amidase, His-tagged) (Clostridioides difficile). Briefly: pull-down; co-affinity purification: His-tagged CwlD and untagged GerS co-produced in E. coli, captured on Ni-NTA agarose (500 mM NaCl, Tris pH 7.5, 15 mM imidazole, 10% glycerol, 2 mM ß-mercaptoethanol), eluted with 200 mM imidazole, Coomassie staining.
In experiment [2] the target is GerSΔ22 (soluble domain of C. difficile GerS lipoprotein, untagged) (Clostridioides difficile). Description: crystal structure; SEC-purified CwlD:GerS complex; hanging drop at 18°C, 50 mM BisTris pH 7.5, PEG 3350 12–18%, 5% glycerol, 0.25 M ammonium nitrate; 2.4 Å.
In experiment [3] the target is CwlD_(H49A)-His6 (Clostridioides difficile). Briefly: SEC; Superdex 200 Increase 10/300 GL; 200 mM NaCl, 10 mM Tris HCl pH 7.5, 5% glycerol, 1 mM DTT; fractions on SDS-PAGE with Coomassie; complexes also run after 1 h at 4°C with fivefold excess ZnCl2 or 1 mM EDTA. On the technique in general: In gel filtration, larger molecules generally elute earlier.
Experiment [4] concerns the target CwlD_(E199A)-His6 (Clostridioides difficile). Described as above.
Experiment [5] has as its target CwlD_(E65A)-His6 (Clostridioides difficile). The description is as above.
Experiment [6] concerns the target CwlDΔ25-His6 (soluble domain of C. difficile CwlD amidase, His-tagged) (Clostridioides difficile). The description is as above.
For experiment [7], the target named is CwlD_(R169D)-His6 (Clostridioides difficile). Description: pull-down; co-affinity purification: His-tagged CwlD and untagged GerS co-produced in E. coli, captured on Ni-NTA agarose (500 mM NaCl, Tris pH 7.5, 15 mM imidazole, 10% glycerol, 2 mM ß-mercaptoethanol), eluted with 200 mM imidazole, Coomassie staining.
Experiment [8] concerns the target CwlD_(R169Q)-His6 (Clostridioides difficile). The experiment is described as above.
Experiment [9] has as its target GerSΔ22-His6 (Clostridioides difficile). Description: SEC; Superdex 200 Increase 10/300 GL; 200 mM NaCl, 10 mM Tris HCl pH 7.5, 5% glycerol, 1 mM DTT; fractions on SDS-PAGE with Coomassie; complexes also run after 1 h at 4°C with fivefold excess ZnCl2 or 1 mM EDTA.
The target is the same in experiment [10]. Description: dynamic light scattering; DynaPro Protein Solutions DLS instrument; purified GerS, CwlD and SEC-purified CwlD:GerS complex.
Experiment [11] deals with FLAG-tagged CwlD_(E199A) (Clostridioides difficile). Briefly: co-IP; lysates of C. difficile sporulating for 22 h; FLAG IP buffer (50 mM Tris pH 7.5, 150 mM NaCl) with 0.1% NP-40; anti-FLAG magnetic resin, 1 h at room temperature; eluted with FLAG peptide; GerS detected by anti-GerS blot.
The target in experiment [12] is FLAG-tagged CwlD_(R169D) (Clostridioides difficile). The experiment is described as above.
The target in experiment [13] is FLAG-tagged CwlD_(H49A) (Clostridioides difficile). Described as above.

For the substance “GerS_(D106R), untagged (domain or fragment)”, in [1], the reduction of GerS co-purification relative to the wild-type complex came out at 90%.
“GerS_(D106A), untagged (domain or fragment)” returned a reduction of GerS co-purification relative to the wild-type complex in [1] of 90%.
For the substance “GerSΔ22 (soluble domain of C. difficile GerS lipoprotein, untagged) (domain or fragment)”, the stoichiometry N was found to be 2 in experiment [2]; 1 in experiment [3]; 1 in experiment [4]; 1 in experiment [5]; 1 in [6]. Also, the reduction of GerS co-purification relative to the wild-type complex in experiment [7] and in experiment [8] was 90% throughout.
Consider GerSΔ22-His6 (domain or fragment), for which the stoichiometry N in experiment [9] and in [10] was 2 each time.
“CwlDΔ25-His6 (soluble domain of C. difficile CwlD amidase, His-tagged) (domain or fragment)”: the stoichiometry N in [6] came out at 2.
On to “GerS, cleaved form (GerS-c), untagged, in sporulating C. difficile (natural protein)”, for which the decrease of GerS pulled down relative to wild-type FLAG-tagged CwlD in [11] turned out to be 40%. The fold reduction of GerS pulled down relative to wild-type FLAG-tagged CwlD in experiment [12] and in [13] was 5 fold throughout.

As usually defined, the stoichiometry N is the number of molecules, sites or subunits per partner or assembly.

Values taken from paper PMC8496864.
